Results from the supplement of paper PMC12042874.
± gives the uncertainty stated by the source.

Assay: amyloid nucleation score (Sup35N fusion, yeast selection) (log enrichment); library NNK1; higher = more nucleation; inactive = no reads after selection
Method in brief: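 Random libraries were run with three technical output replicates. In each, psi-negative yeast expressing Sup35N fused to peptides of 20 random codons were induced 24 hours with 100 μM copper sulfate and grown 7 days at 30°C on medium lacking adenine and uracil, and input and output plasmid inserts were Illumina-sequenced. The nucleation score is the DiMSum log enrichment of output over input reads, centred on the mode score of non-aggregating sequences, and sequences under 100 input reads were excluded.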

Substance | amyloid nucleation score
PGYYLEYFLYVNLSWAKTWG | 0.018 ± 0.27
YIWFC | 6.28 ± 0.071
HNLRVIFCY | 0.421 ± 0.58
FQMNSCNWSVTGRIVFPDVY | 1.58 ± 0.42
HRLKTYIMVSFIYRADAVGI | 4.89 ± 0.068
QAVRDVRLCN | -0.073 ± 0.61
YRYHVSCTYAVSLGAAKSNA | -0.078 ± 0.72
PNYIRGSIINYILEYSISIN | 0.02 ± 0.39
YSVFALRINLFAYTIPNSVL | -0.34 ± 0.24
YFVGGF | -0.859 ± 0.91
QVVFE | 0.1 ± 0.68
IYMVSC | 0.077 ± 0.27
ALDQN | -0.412 ± 0.78
ELASSLIVFVDFSRACELNL | 4.95 ± 0.12
ERVLYIGFYTYVDNCFRLLK | -0.12 ± 0.34
LISLLGSISMGPCIVRVYN | -0.259 ± 0.48
LCSWADLDNKDLKSPR | 0.102 ± 0.43
QTVGKVDVVDCLVLVVRLTI | -0.003 ± 0.57
TSDRTKSVLMVYSWV | -0.576 ± 0.92
VLLYKSLAV | 0.964 ± 0.15
LAHLCINIVSKCSNSWTIGT | 0.55 ± 0.57
VQHRIISLALVYNTYNFSFS | 8.018 ± 0.074
TWCCYCFLRVFFEERE | -0.298 ± 0.33
TAIDITTVLCIICRDPHINL | 8.364 ± 0.048
ESRCRTLKIVLCCGFLSDWP | inactive
TSNYAGAISFANSNILLFFV | 3.64 ± 0.14

Substance | amyloid nucleation score
RSSWQMSPNMLLTNLNCCSS | 6.367 ± 0.047
DYSVYRSERMCTLRAS | -0.279 ± 0.36
TRAWNGGCGALCRITFDPSC | 2.6 ± 0.13
CHQAEPGIGMRSCTLVGEGV | 1.36 ± 0.61
IWTKSCDCVCSCGGYQGCYR | -0.038 ± 0.19
GKCFVVMWRVLGVDSVLMEV | -0.414 ± 0.25
IGCSI | inactive
PSSGLFASLIVMSTVRTDLI | -0.307 ± 0.38
SFSMFSEFSLLRCSAYRNPM | 2.26 ± 0.063
QKYPPRGNRFSLCRITVSCF | 0.22 ± 0.89
LAFTCFH | 0.568 ± 0.28
WRVYQSFGDLAVCTF | 0.326 ± 0.45
VDISEGCVSPVCFLMPCLMH | -0.238 ± 0.29
VRTSYFVAGSGSNAWGGENE | -0.956 ± 0.99
LRNVYMCVQWGFMVETGASC | 3.35 ± 0.16
ALLWQECYMP | 2.26 ± 0.17
SLFATGN | inactive
IRSLLYYLFGFLMFWVIRIW | 0.226 ± 0.66
CRSTYDQLPEYLST | -0.117 ± 0.56
TSLNNGKSDFLYEARVLLEF | 0.541 ± 0.35
VVHHEDYMRLGC | -0.948 ± 1.4
LQKIMQKISPIFRNRIYVRR | -0.327 ± 0.48
KSYYGSLNLAMSTSLYIQTM | 0.769 ± 0.34
GLRWYQFEPTQG | 0.126 ± 0.38
QANAMNYKEKLFNFRYRGAM | -0.722 ± 0.53
FYKQLYSAEHKKFSCTAFVK | inactive

Substance | amyloid nucleation score
FRFGTA | 0.39 ± 0.49
YLVITLFPEIIIDYLSYLCP | 4.52 ± 0.079
PGLLMNRVPVSSTQYIYLEQ | 0.029 ± 0.75
YRHTVIVY | 1.13 ± 0.21
SGGDFQCTRHMSVDLGLPVS | 0.428 ± 0.64
RRVLRTSKNSSLMDFYATIE | 0.299 ± 0.79
LGVAFQRYVCICEVVSLSRG | 0.523 ± 0.32
PFVNW | 0.432 ± 0.84
NNLRYPCLGRCSISFGMVCG | 0.593 ± 0.41
VHGYL | 0.067 ± 0.59
CCPRYMSIDSIDDRFYDKSF | inactive
DCPSS | 0.537 ± 0.29
VSCQQTFASLFFGILAGKSI | -0.006 ± 0.54
HVMIFVIFPENYNICTFMKY | 2.29 ± 0.2
SADQIYHKGQWHSWTNSTNQ | 0.35 ± 0.29
VSMHWSISRCIC | 0.772 ± 0.43
PFNFIPFAYRLYRKTYRTSH | 0.165 ± 0.46
RKDVLEGADSMTMVRRSSLF | -0.286 ± 0.35
LSTGWESNLEGCCENWGGLK | -0.499 ± 0.29
RATCVFCYTICFSWPSVWTF | 3.5 ± 0.062
VIYLGRIVVEGSNLTSKSSA | 0.85 ± 0.7
LSRPTYSRMHIWISCHLIVV | -0.707 ± 1.7
DNTSCLW | inactive
FLNNTGAQSKLFLDVSVRQG | -0.065 ± 0.86
NRTYVGWEVILPKVWNSSVY | -0.663 ± 0.61
SFRCGSNNSIHD | -2.02 ± 1.7

Substance | amyloid nucleation score
SNPSVNRHFVSSRGWLGKSN | -0.422 ± 1.4
PVVCYTVAFVTGSTDVV | -0.139 ± 1.3
FNIHCVSSA | -0.015 ± 0.47
VFLLKDRNTTCLWKSVIQQM | 0.494 ± 0.34
FVVLSRFACRLRLTR | 0.853 ± 0.55
NRFYL | 0.597 ± 0.4
VFKSVFY | 1.99 ± 0.32
GVMYLKRKLRCYMGINYVFH | 0.074 ± 0.31
LYQKHWVLSTALE | inactive
RKFRNKAIISIIDVYRPAAI | 1.01 ± 0.62
SRRKQIVGKVSVFFEASRFV | -1.06 ± 1.2
YDLNYKDCSLRSVSSVGLQC | 0.099 ± 0.19
NLRQHVYICYNLNGRTHFLW | 6.719 ± 0.047
NSNLVFFRQYIYTVLYTNSF | 5.817 ± 0.048
DKTECDQCIKSG | -0.691 ± 0.42
DIIWMFWRIINSPFFTQSVV | -0.176 ± 0.26
RRCMLLYCGLGAGALGSDGR | -0.539 ± 1.1
FTSSVIILCIFYWNGLVRIF | -0.505 ± 1.5
VSYKTGIWGVSCDIDGVY | -0.182 ± 0.24
MVTTPFALTGFRDVMWCRAR | 3.09 ± 0.092
FRVVCVHSLSMGNVFNFDWR | 4.77 ± 0.08
NVFLVRAYLMENVHFYDFMC | 4.54 ± 0.14
LCGTSGCSIRNLV | 0.026 ± 0.46
LLAMFKFDNPHILFCSSILL | 5.62 ± 0.078
ACANLKSGIFKRFFTSCSGT | -0.959 ± 0.65
DFFGWTNRNHQNSDSFLWDG | 0.69 ± 0.41

Substance | amyloid nucleation score
VIGYWGW | -0.164 ± 0.4
CRASFACERDNIS | 0.547 ± 0.31
PCTRHCLRLHLAFMWLILAI | -0.31 ± 0.4
PYGIGIFNYLWATGMNLSQA | -0.071 ± 0.43
TVFSSWLTQGSMYV | 1.48 ± 0.44
ALTIDRCRAESYLRRLTFLL | -0.653 ± 0.4
LRENPQLGVVTGLTLGSDLP | 0.19 ± 0.5
WNMLPSIPGDRGWLDGVPVV | -0.45 ± 0.39
LMRHMFAWVDFIFSGSTQAC | 1.14 ± 0.97
MNVFRGSVPAFPLPPYMRLA | -0.242 ± 0.34
FLTIYGLNPSDYVGKVRQRD | 0.236 ± 0.34
AKSWCVSIKLVSDNSYLWET | 1.12 ± 0.14
QDGLGLTDAVRRTGFVGRTH | 0.197 ± 0.86
DFLKGLFIRFRKSNFE | -1.11 ± 1.7
FLCHWLYFRNSYGGYVSRW | 1.92 ± 0.4
GRPLCSRPMILHMHNITLRM | 1.05 ± 0.97
KTFVPWISCATSIEVFYVAS | 1 ± 0.54
STTYCFFSYAGLRICYALMG | 1.3 ± 0.2
CKMNYGLVLAGSLGVGSGQD | 0.317 ± 0.42
CYKPPLWMMYLLLRRDVYRD | inactive
CTPFMRTSLSFICSDSSVML | 0.771 ± 0.82
DKFLRWVNNVCFKSWTAIAP | 0.609 ± 0.57
